Patent US20110123440A1

target: human FcRn (soluble recombinant, 6XHis, co-expressed with beta2 microglobulin) (human); assay: luminex binding assay, pH 6
Sequence (P55899 other isoform, or with tags, fused parts or gaps): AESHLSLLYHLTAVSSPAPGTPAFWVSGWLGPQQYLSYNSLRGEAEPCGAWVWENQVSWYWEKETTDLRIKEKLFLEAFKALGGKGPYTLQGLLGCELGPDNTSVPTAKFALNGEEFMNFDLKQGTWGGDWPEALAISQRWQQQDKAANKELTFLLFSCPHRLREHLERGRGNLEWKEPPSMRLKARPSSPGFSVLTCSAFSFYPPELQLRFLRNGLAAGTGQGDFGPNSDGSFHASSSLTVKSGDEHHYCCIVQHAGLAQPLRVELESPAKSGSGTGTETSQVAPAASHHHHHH

Substance	FcRn binding at pH 6 (fold difference vs wild type anti-CD30) (fold vs wild type)
anti-CD30 antibody (5F11) Fc variant G446W	1.1
anti-CD30 antibody (5F11) Fc variant D376T	1.6
anti-CD30 antibody (5F11) Fc variant A378P	0.6
anti-CD30 antibody (5F11) Fc variant P396I	1.4
anti-CD30 antibody (5F11) Fc variant E345W	1.3
anti-CD30 antibody (5F11) Fc variant S354R	1.3

More lines, now with the values ahead:

FcRn binding at pH 6 (fold difference vs wild type anti-CD30) (fold vs wild type)	Substance
0.2	anti-CD30 antibody (5F11) Fc variant S254W
0.6	anti-CD30 antibody (5F11) Fc variant S426W
1.4	anti-CD30 antibody (5F11) Fc variant E356K
1.1	anti-CD30 antibody (5F11) Fc variant P247I
1.7	anti-CD30 antibody (5F11) Fc variant F404W
